Experimental data taken from publication doi:10.1101/2024.09.04.610023 (bioRxiv, 2024).

T1: Purified human GST-PABPN1 (human, UniProt Q86U42-1 1-306)
T1 sequence (looked up): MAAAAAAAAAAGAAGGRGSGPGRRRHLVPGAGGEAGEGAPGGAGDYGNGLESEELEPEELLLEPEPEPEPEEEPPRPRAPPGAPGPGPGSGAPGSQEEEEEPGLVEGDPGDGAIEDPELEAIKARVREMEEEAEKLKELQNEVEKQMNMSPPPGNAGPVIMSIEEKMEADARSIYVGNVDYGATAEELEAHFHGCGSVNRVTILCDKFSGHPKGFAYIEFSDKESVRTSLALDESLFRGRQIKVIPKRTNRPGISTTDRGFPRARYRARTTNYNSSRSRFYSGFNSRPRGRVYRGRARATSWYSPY


These binders were tested against T1, Purified human GST-PABPN1 (assay: peptide or protein array).

binding result	Binder
binds	LWRKRDLYQTLYVD (peptide, UniProt Q63053 302-315, looked up) [Arc array peptide 302-315]
binds	TQIFEDPREFLSHL (peptide, UniProt Q63053 211-224, looked up) [Arc array peptide 211-224]
binds	QPKFKRFLRHPLPK (peptide, UniProt Q63053 330-343, looked up) [Arc array peptide 330-343]
